Publication PMC6150735, “Molecular Docking-Based Design and Development of a Highly Selective Probe Substrate for UDP-glucuronosyltransferase 1A10” (Molecular Pharmaceutics, 2018)
Substitutions are numbered along the chain they refer to. Numbers in names are those of the source. Entries after “also recorded” stand apart in the source; their conditions may differ.

Columns and labels:
[1] = test system: human UGTs; assay: Recombinant human UGT screen: glucuronidation rates across human UGTs; format: biochemical; settings: 10 μM aglycone; for Selectivity among human UGTs: other UGTs at very low rates
Procedure: (§1) Recombinant human UGTs 1A1, 1A3, 1A6, 1A7, 1A8, 1A9, 1A10, 2A1, 2A2, 2A3, 2B4, 2B10, 2B7, and 2B17 were produced, as His-tagged proteins, in baculovirus-infected insect cells as previously described.[37]−[39] The relative expression level of each of these recombinant UGTs was evaluated by immunodetection, using monoclonal antibody against the His-tag, as described elsewhere.[40] A numeric value of 1.0 was given to the expression level of UGT1A8 and the relative expression level of each of the other UGTs was related to this value. Normalized activities were obtained by dividing the glucuronidation rate values by the relative expression level of the tested UGT. In addition, UGTs 1A4, 2B10, and 2B15 were purchased from Corning Life Sciences (New York) and are marked, in Figure 5, with a “C” to indicate that they are commercial enzymes. The expression levels of the UGTs in the commercial samples could not be determined, so their protein concentration was used to calculate the reaction rate.
(§2) The incubation mixtures for glucuronidation assays contained 100 mM Tris-HCl buffer pH 7.4, 2.5 mM MgCl2, 0.5 mM UDPGA, recombinant UGT, or microsomes as the enzyme source and 0–15 μM of the test aglycone substrate. When the incubation mixtures contained microsomes, alamethicin was used at a final concentration of 12.5 μg/mL, but it was not included in the recombinant enzyme assays.[43] In the first experiments three negative control samples were tested, namely (i) without the substrate 7-hydroxycoumarin derivative, (ii) without the cofactor UDPGA, or (iii) without the enzyme source. In subsequent experiments, the control samples lacked the enzyme source since it gave the highest fluorescence background. Preliminary experiments were done under different conditions than most of the later assays, namely in 2.5 mL of 100 mM phosphate buffer pH 7.4, containing 500 μg pig liver microsomes, 1.0 μM compound 6 and 0.5 mM UDPGA, at room temperature. Fluorescence spectra (excitation 200–420 nm; emission 400–600 nm) or fluorescence decrease at 390 nm excitation and 460 nm emission, were measured in these preliminary experiments, using a Shimadzu RF-5000 spectrophotofluorometer.
(§3) Most of the glucuronidation assays were carried out in 96 multiwell plate format, and incubations were carried out in 100 μL and at 37 °C, in the presence of Tris–HCl buffer pH 7.4, UDPGA, and the tested 7-hydroxycoumarin derivative, at the indicated concentrations. Fluorescence decline in the multiwell plate experiments was monitored every other minute, for 40 min, using an excitation filter at 405 nm and detection at 460 nm, in a Victor2 1420 Multilabel counter (PerkinElmer, Life Sciences, Turku, Finland). The fluorescence values were transformed into molarity using the aglycone substrates for making the respective standard curves. Slopes of the substrate concentration decrease per minute were calculated using linear regression analysis, in which the linear part of the kinetic assay indicated the glucuronidation rate. Enzyme catalyzed glucuronidation rate was calculated by subtracting the blank value from the full reaction value. The intra-assay variability of the kinetic assays was 6% when compound 6 was used as the aglycone substrate. Kinetic analyses were also performed in the same 96 multiwell plates format, with excitation filter at 405 nm and detection at 460 nm, using 6–8 different substrate concentrations per substrate and two different protein concentrations for both the wild-type and mutant UGT1A10. The higher concentrations, 13.5 mg/L for UGT1A10 and 12.0 mg/L for the UGT1A10 mutant, were used when the substrates were HFC, compounds 4 and 6, whereas the lower protein concentrations, 6.75 and 6.0 mg/L for UGT1A10 and the mutant, respectively, were used when the substrates were compounds 1, 2, 3, and 5.

[2] = test system: human intestinal microsomes (HIM); assay: Glucuronidation by human intestinal microsomes (HIM); format: in vitro ADME; settings: 10 μM aglycone
Procedure: (§4) A commercial HLM pool (cat no:452210, BD Gentest, Bedford, MA) and human intestine microsomes (HIM) pool (lot. no 1110189, XenoTech, Kansas City, KS) were purchased. Pig liver samples were prepared from untreated female pigs that were used for practicing surgical procedures at the University of Kuopio (currently: University of Eastern Finland, Kuopio campus). Other animal liver microsomes were prepared as described previously.[41] The Ethics Committee for Animal Experiments, University of Kuopio, approved these experiments.
as §2, §3

[3] = Absorbance spectra of coumarin derivatives; format: physicochemical; settings: 10 μM, 100 mM Tris–HCl pH 7.4, 10% dimethyl sulfoxide
Procedure: (§5) The absorbance spectra of 10 μM coumarin derivatives at 100 mM Tris–HCl pH 7.4 containing 10% dimethyl sulfoxide were measured using a Hitachi U-2000 Spectrophotometer (Tokyo, Japan). Excitation and emission fluorescence spectra of 0.1 μM coumarin derivatives in 100 mM Tris-HCl pH 7.4 were measured using a Shimadzu RF-5000 spectrophotofluorometer (Tokyo, Japan). The excitation spectra was from 200 to 420 at 460 nm emission and the emission spectra was from 400 to 600 at 390 nm excitation (data in Supplementary Table S1 and Figures S1 and S2). The effect of pH on fluorescence intensity was determined at 405 nm excitation and 460 nm emission, in the presence of 1.5% trichloroacetic acid, 100 mM phosphate buffers at pH 5, 6, 7, 8, and 9, or 1.6 M glycine–NaOH pH 10.4.

[4] = Excitation and emission fluorescence spectra of coumarin derivatives; format: physicochemical; parameters: dose or concentration left out as unconfirmed
Procedure: as §5, with “Excitation and emission fluorescence spectra of 0.1 μM coumarin derivatives in 100 mM Tris-HCl pH 7.4 were measured using a Shimadzu RF-5000 spectrophotofluorometer (Tokyo, Japan).” left out

[5] = test system: human liver microsomes (HLM); assay: Glucuronidation by human liver microsomes (HLM); format: in vitro ADME; settings: 10 μM aglycone
Procedure: as §4, §2, §3

[6] = substrate: CN(C)c1ccc(-c2cc3ccc(O)cc3oc2=O)cc1; assay: Glucuronidation kinetics by recombinant wild-type UGT1A10 (fluorescence decrease, 96-well plate); format: biochemical, human; settings: other: UGT1A10 wild-type, 7-hydroxyl glucuronidation, Michaelis–Menten, one experiment; pH 7.4; 37.0 °C
Procedure: as §1, §2, §3

[7] = substrate: COc1ccc(-c2cc3ccc(O)cc3oc2=O)cc1; assay: as above; format: biochemical, human; settings: other: UGT1A10 wild-type, 7-hydroxyl glucuronidation, Michaelis–Menten, one experiment; pH 7.4; 37.0 °C
Procedure: as §1, §2, §3

[8] = substrate: Cc1ccc(-c2cc3ccc(O)cc3oc2=O)cc1; assay: as above; format: biochemical, human; settings: other: UGT1A10 wild-type, 7-hydroxyl glucuronidation, Michaelis–Menten, one experiment; pH 7.4; 37.0 °C
Procedure: as §1, §2, §3

[9] = substrate: O=c1cc(C(F)(F)F)c2ccc(O)cc2o1; assay: as above; format: biochemical, human; settings: other: UGT1A10 wild-type, 7-hydroxyl glucuronidation, Michaelis–Menten, one experiment; pH 7.4; 37.0 °C
Procedure: as §1, §2, §3

[10] = substrate: O=c1oc2cc(O)ccc2cc1-c1ccc(F)cc1; assay: as above; format: biochemical, human; settings: other: UGT1A10 wild-type, 7-hydroxyl glucuronidation, Michaelis–Menten, one experiment; pH 7.4; 37.0 °C
Procedure: as §1, §2, §3

[11] = substrate: O=c1oc2cc(O)ccc2cc1-c1ccc(O)cc1; assay: as above; format: biochemical, human; settings: other: UGT1A10 wild-type, 7-hydroxyl glucuronidation, Michaelis–Menten, one experiment; pH 7.4; 37.0 °C
Procedure: as §1, §2, §3

[12] = substrate: O=c1oc2cc(O)ccc2cc1-n1cncn1; assay: as above; format: biochemical, human; settings: other: UGT1A10 wild-type, 7-hydroxyl glucuronidation, Michaelis–Menten, one experiment; pH 7.4; 37.0 °C
Procedure: as §1, §2, §3

[13] = substrate: CN(C)c1ccc(-c2cc3ccc(O)cc3oc2=O)cc1; assay: Glucuronidation kinetics by UGT1A10 mutant 1A10-H210M (fluorescence decrease, 96-well plate); format: biochemical, human; settings: other: UGT1A10mutant (H210M), 7-hydroxyl glucuronidation, one experiment; pH 7.4; 37.0 °C
Procedure: (§6) The UGT1A10 mutant 1A10-H210 M was prepared according to the QuikChange methodology, using the cloned UGT1A10 in pFastBac[42] as a template and the following two oligonucleotides:
(§7) The entire coding sequence of UGT1A10 in the mutant clone was sequenced, and subsequently, recombinant baculovirus was prepared and used to express the mutant enzyme in baculovirus-infected SF9 insect cells.
as §2, §3

[14] = substrate: COc1ccc(-c2cc3ccc(O)cc3oc2=O)cc1; assay: as above; format: biochemical, human; settings: other: UGT1A10mutant (H210M), 7-hydroxyl glucuronidation, one experiment; pH 7.4; 37.0 °C
Procedure: as §6, §7, §2, §3

[15] = substrate: Cc1ccc(-c2cc3ccc(O)cc3oc2=O)cc1; assay: as above; format: biochemical, human; settings: other: UGT1A10mutant (H210M), 7-hydroxyl glucuronidation, one experiment; pH 7.4; 37.0 °C
Procedure: as §6, §7, §2, §3

[16] = substrate: O=c1cc(C(F)(F)F)c2ccc(O)cc2o1; assay: as above; format: biochemical, human; settings: other: UGT1A10mutant (H210M), 7-hydroxyl glucuronidation, one experiment; pH 7.4; 37.0 °C
Procedure: as §6, §7, §2, §3

[17] = substrate: O=c1oc2cc(O)ccc2cc1-c1ccc(F)cc1; assay: as above; format: biochemical, human; settings: other: UGT1A10mutant (H210M), 7-hydroxyl glucuronidation, one experiment; pH 7.4; 37.0 °C
Procedure: as §6, §7, §2, §3

[18] = substrate: O=c1oc2cc(O)ccc2cc1-c1ccc(O)cc1; assay: as above; format: biochemical, human; settings: other: UGT1A10mutant (H210M), 7-hydroxyl glucuronidation, one experiment; pH 7.4; 37.0 °C
Procedure: as §6, §7, §2, §3

[19] = substrate: O=c1oc2cc(O)ccc2cc1-n1cncn1; assay: as above; format: biochemical, human; settings: other: UGT1A10mutant (H210M), 7-hydroxyl glucuronidation, one experiment; pH 7.4; 37.0 °C
Procedure: as §6, §7, §2, §3

Molecule: O=c1ccc2ccc(O)cc2o1 [7-hydroxycoumarin, reference compound]
- UGT(s) that primarily glucuronidate the substrate ([1]; control substrates): UGT1A6
- Glucuronidation rate, HLM compared with HIM (in words) [2]: much higher rates by HLM than by HIM

Molecule: Cc1ccc(-c2cc3ccc(O)cc3oc2=O)cc1 [Compound 5, 7-Hydroxy-3-(p-tolyl)-2H-chromen-2-one]
- Selectivity among human UGTs [1]: selective for UGT1A10
- Amax [3]: 347 nm
- ε abs [3]: 19500 M⁻¹ cm⁻¹
- Fluorescence EMmax [4]: 462 nm
- Fluorescence EXmax [4]: 358 nm

Molecule: CN(C)c1ccc(-c2cc3ccc(O)cc3oc2=O)cc1 [Compound 4, 7-Hydroxy-3-(4-(dimethylamino)phenyl)-2H-chromen-2-one]
- Selectivity among human UGTs [1]: selective for UGT1A10
- Glucuronidation by HLM (in words) [5]: not glucuronidated by HLM at all, or only at very low rates; also recorded: very low or below the detection limit
- Amax [3]: 370 nm
- ε abs [3]: 22900 M⁻¹ cm⁻¹
- Fluorescence EMmax [4]: 457 nm

B1: UGT1A10 (Homo sapiens) (protein)
chain: GKLLVVPMDGSHWFTMQSVVEKLILRGHEVVVVMPEVSWQLERSLNCTVKTYSTSYTLEDQNREFMVFAHAQWKAQAQSIFSLLMSSSSGFLDLFFSHCRSLFNDRKLVEYLKESSFDAVFLDPFDTCGLIVAKYFSLPSVVFTRGIFCHHLEEGAQCPAPLSYVPNDLLGFSDAMTFKERVWNHIVHLEDHLFCQYLFRNALEIASEILQTPVTAYDLYSHTSIWLLRTDFVLDYPKPVMPNMIFIGGINCHQGKPLPMEFEAYINASGEHGIVVFSLGSMVSEIPEKKAMAIADALGKIPQTVLWRYTGTRPSNLANNTILVKWLPQNDLLGHPMTRAFITHAGSHGVYESICNGVPMVMMPLFGDQMDNAKRMETKGAGVTLNVLEMTSEDLENALKAVINDKSYKENIMRLSSLHKDRPVEPLDLAVFWVEFVMRHKGAPHLRPAAHDLTWYQYHSLDVIGFLLAVVLTVAFITFKCCAYGYRKCLGKKGRVKKAHKSKTH
notes: His-tag; made in house; host or cells: baculovirus-infected insect cells
- Km [6]: 2.8 (0–6.5) μM
- Vmax [6]: 0.0153 µmol/min/mg
- Vmax/Km [6]: 5500 µL/min/mg
- Km [7]: 8.3 (0–31.4) μM
- Vmax [7]: 0.0223 µmol/min/mg
- Vmax/Km [7]: 2700 µL/min/mg
- Km [8]: 2.8 (0.7–4.9) μM
- Vmax [8]: 0.0162 µmol/min/mg
- Vmax/Km [8]: 5800 µL/min/mg
- Km [9]: 14 (10.7–17.3) μM
- Vmax [9]: 0.0151 µmol/min/mg
- Vmax/Km [9]: 1100 µL/min/mg
- Km [10]: 10.7 (1.7–19.6) μM
- Vmax [10]: 0.031 µmol/min/mg
- Vmax/Km [10]: 2900 µL/min/mg
- Km [11]: 2.2 (1–3.4) μM
- Vmax [11]: 0.0059 µmol/min/mg
- Vmax/Km [11]: 2700 µL/min/mg
- Km [12]: 7.0 (3.1–11) μM
- Vmax [12]: 0.0053 µmol/min/mg
- Vmax/Km [12]: 760 µL/min/mg

B2: UGT1A10 mutant 1A10-H210M (Homo sapiens; H210M) (protein)
chain: B1 chain with H185M
notes: His-tag; made in house; host or cells: baculovirus-infected SF9 insect cells
- Km [13]: 4.7 (1.5–7.9) μM
- Vmax [13]: 0.0065 µmol/min/mg
- Vmax/Km [13]: 1400 µL/min/mg
- Km [14]: 3.8 (0.97–6.7) μM
- Vmax [14]: 0.0095 µmol/min/mg
- Vmax/Km [14]: 2500 µL/min/mg
- Km [15]: 4.6 (1.5–7.8) μM
- Vmax [15]: 0.0059 µmol/min/mg
- Vmax/Km [15]: 1300 µL/min/mg
- Km [16]: 32.9 (0–102) μM
- Vmax [16]: 0.0117 µmol/min/mg
- Vmax/Km [16]: 360 µL/min/mg
- Km [17]: 3.5 (0–9.3) μM
- Vmax [17]: 0.0087 µmol/min/mg
- Vmax/Km [17]: 2500 µL/min/mg
- Km [18]: 7.8 (5.5–10.2) μM
- Vmax [18]: 0.0063 µmol/min/mg
- Vmax/Km [18]: 810 µL/min/mg
- Km [19]: 26.8 (0–80) μM
- Vmax [19]: 0.0063 µmol/min/mg
- Vmax/Km [19]: 240 µL/min/mg
